Results taken from patent US20020143164A1, “Ras activator nucleic acid molecules, polypeptides and methods of use” (priority 1999, published 2002).

Assays:
[1] = tested on: Ras; test: Ras activation assay in living cells, GRF4 and deletion mutants expressed in HEK-293T cells; type: cell-based, human; details: HEK-293T cells, no cNMP stimulation
Protocol: HEK-293T cells were transfected with vector alone, GRF4 (WT), GRF4 lacking its cNMP-BD (ΔcNMP-BD) or its CDC25 domain (ΔCDC25), and then treated (or not) with 8-Br-cAMP. Cell lysates were then incubated with GST-Raf1-RBD to precipitate active Ras, and immunobloited with anti Ras antibodies as above (upper panel). Lower panels are controls for total endogenous Ras and transfected GRF4 or its mutants.
Flag, HA or myc tags was added to the N-terminus of full length GRF4 using PCR, and subcloned into the mammalian expression vector pCMV5 (Invitrogen). Mutants GRF4 with deletion of the CDC25 domain (residue 711-1007, GRF4DCDC25 or DCDC25 for short), the cNMP-BD (residue 134-254, DcNMP-BD), the PLPF motif in the PDZ domain (residue 396-399, -PLPF), or bearing mutations in the PDZ-binding motif (SAV to AAA), were generated using PCR. The GST-GRF4-cNMP-BD (residue 101-303) and GST-Carboxy-terminus (residue 1348-1499) were PCR-generated and cloned into pGEX-2T ( Pharmacia). The latter construct was used to generate a fusion protein (GST-GRF4C terminus) which was used to immunize rabbits for the generation of polyclonal anti GRF4 antibodies.
HEK-293T cells were transfected as above, serum starved overnight and then subjected to various treatments, as described in the text. […] GTP in the lysates was determined using activation specific probes as described. Briefly, to determined the levels of active Ras (Ras-GTP) in cell, sepharose-bound GST fusion protein of the Ras-binding domain (RBD) of Raf-1 (GST-Raf1-RBD; Upstate Biotechnology Inc.) was used to precipitate Ras-GTP from cell lysates, and the amount of Ras-GTP determined by immunoblotting with anti Ras antibodies (Quality Biotech). Similarly, to determine the level of Rap1-GTP in cell lysates, sepharose-bound GST fusion proteins of the Rap1-binding domain of RaIGDS (GST-RaIGDS-RBD) were used to precipitate Rap1-GTP, which was then detected on a Western blot using anti-Rap1 antibodies (Transduction Lab).

[2] = tested on: Ras; test: In vitro GEF assay (32P-α-GTP binding to Ras); type: biochemical
Protocol: Full length (GRF4) or CDC25-deleted (ΔCDC25) GRF4, or GRF2, each Flag-tagged, were immunoprecipitated from transfected Hek-293T cells using anti Flag antibodies. Equal amounts of immunoprecipitates were washed with GEF lysis buffer, equilibrated with GEF assay buffer and incubated with 32P-α-GTP (diluted in cold GTP) plus 100 ng of Ras for 30 min. Bound and unbound radiolabelled GTP were then separated by filtration, and the amount of bound GTP determined by scintillation counting, as detailed in the Method section. Fold Ras activation was compared to the activation of Ras in the absence of GRFs (which was set to 1).
GRF4 has a RasGRF(GEF) activity/function. To show its GEF activity, we performed in-vitro GEF assays. Briefly, GST-Ras was added alone (tubes 1 and 2) or along with GST-CDC25, or immunoprecipitated full-length of GRF4 (tubes 3 and 4). All tubes contained assay mixture including cold GTP and P32 alpha GTP. The exchange reactions were stopped at the indicated times. The stopped reaction mixtures were passed through nitrocellulose filters which were then washed with stop buffer to separate bound and unbound nucleotides. Filters were dried and then quantified by scintillation counting to determine bound CPM. The labeled nucleotides trapped on the washed filters were assumed to be Ras-associated. The difference in bound CPM over 30 minute period was determined for reactions where GST-Ras was added alone (it is the difference in bound CPM between tubes 1 and 2) and where GST-Ras was added with a GEF (it is the difference in bound CPM between tubes 3 and 4).

[3] = tested on: Rap1; test: Rap1 activation assay in living cells (GST-RalGDS-RBD pull-down); type: cell-based, human; details: HEK-293T cells, via CDC25 domain
Protocol: HEK-293T cells were transfected as above, serum starved overnight and then subjected to various treatments, as described in the text. Cells were lysed with lysis buffer (25 mM Hepes, pH 7.5, 150 mM NaCl, 1% NP-40, 0.25% Na deoxycholate, 10% glycerol, 25 mM NaF, 10 mM MgCl2, 1 mM EDTA, 1 mM NaVO4, […]) and the level of Ras.GTP or Rap. GTP in the lysates was determined using activation specific probes as described. Briefly, to determined the levels of active Ras (Ras-GTP) in cell, sepharose-bound GST fusion protein of the Ras-binding domain (RBD) of Raf-1 (GST-Raf1-RBD; Upstate Biotechnology Inc.) was used to precipitate Ras-GTP from cell lysates, and the amount of Ras-GTP determined by immunoblotting with anti Ras antibodies (Quality Biotech). Similarly, to determine the level of Rap1-GTP in cell lysates, sepharose-bound GST fusion proteins of the Rap1-binding domain of RaIGDS (GST-RaIGDS-RBD) were used to precipitate Rap1-GTP, which was then detected on a Western blot using anti-Rap1 antibodies (Transduction Lab).

[4] = target: T1, GRF4-cNMP-BD (Homo sapiens, UniProt Q9Y4G8); test: cAMP-agarose binding assay; details: cAMP agarose beads, anti GRF4 immunoblot
T1 construct: The GST-GRF4-cNMP-BD (residue 101-303); made in house
T1 sequence (Q9Y4G8 101-303): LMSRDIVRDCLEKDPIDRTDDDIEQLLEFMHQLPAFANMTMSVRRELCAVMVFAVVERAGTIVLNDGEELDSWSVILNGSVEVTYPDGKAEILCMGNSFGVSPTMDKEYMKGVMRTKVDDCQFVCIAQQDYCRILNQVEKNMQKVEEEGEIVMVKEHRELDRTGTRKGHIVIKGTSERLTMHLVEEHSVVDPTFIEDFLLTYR
Protocol: Right and left panels in (b) represent two separate experiments.
Following extensive washes in HNTG (20 mM Hepes, pH 7.5, 150 mM NaCl, 0.1% Triton ×100, 10% Glycerol) proteins were eluted off beads with sample buffer, separated on SDS-PAGE and immunoblotted with either anti GST antibodies for the in vitro binding experiments, or with anti GRF4 antibodies for the pull down experiments.

[5] = tested on: Rat 2 fibroblasts; test: Transformation assay (foci formation); type: cell-based; details: transient transfection, cultured three weeks
Protocol: Transformation assays were performed using Rat 2 fibroblasts, a suitable cell type for this assay. Rat 2 cells were transiently transfected with empty vector, GRF4 construct, or mutant RasV12 construct (a transforming form of Ras used as a positive control). After transfection, cells were cultured over a period of three weeks with routine changes of media, and were routinely examined for morphology changes under a light microscope.

[6] = tested on: Ras; test: In vitro pull-down of GRF4 with GST-Ras of different nucleotide-bound states; type: binding; details: lysates of 293T cells with Flag-tagged GRF4, GST-Ras beads
Description: Beads were washed and resolved on SDS-PAGE and subsequently immunoblofted with anti-Flag antibodies to detect Flag-tagged GRF4. […] However, it bound to Ras differentially, depending on the nucleotide-bound states of Ras.

In vitro GEF activity on Ras [2]: active on Ras
Fold Ras activation in vitro (activation without GRFs set to 1) ([2]; immunoprecipitated Flag-tagged protein, 100 ng Ras, 30 min): ~2.9 fold
Precipitation by immobilized cAMP from lysates of expressing HEK-293T cells [4]: able to precipitate
Binding to EDTA-treated Ras (nucleotide-free) [6]: bound strongly
Binding to Ras-GDP [6]: bound weakly
Binding to Ras-GTP [6]: bound strongly
B1: GRF4: Ras guanine nucleotide exchange factor polypeptide, SEQ ID NO: 2, 1499 amino acids (protein, listed as Homo sapiens)
chain: MKPLAIPANHGVMGQQEKHSLPADFTKLHLTDSLHPQVTHVSSSHSGCSITSDSGSSSLSDIYQATESEAGDMDLSGLPETAVDSEDDDDEEDIERASDPLMSRDIVRDCLEKDPIDRTDDDIEQLLEFMHQLPAFANMTMSVRRELCAVMVFAVVERAGTIVLNDGEELDSWSVILNGSVEVTYPDGKAEILCMGNSFGVSPTMDKEYMKGVMRTKVDDCQFVCIAQQDYCRILNQVEKNMQKVEEEGEIVMVKEHRELDRTGTRKGHIVIKGTSERLTMHLVEEHSVVDPTFIEDFLLTYRTFLSSPMEVGKKLLEWFNDPSLRDKVTRVVLLWVNNHFNDFEGDPAMTRFLEEFENNLEREKMGGHLRLLNIACAAKAKRRLMTLTKPSREAPLPFILLGGSEKGFGIFVDSVDSGSKATEAGLKRGDQILEVNGQNFENIQLSKAMEILRNNTHLSITVKTNLFVFKELLTRLSEEKRNGAPHLPKIGDIKKASRYSIPDLAVDVEQVIGLEKVNKKSKANTVGGRNKLKKILDKTRISILPQKPYNDIGIGQSQDDSIVGLRQTKHIPTALPVSGTLSSSNPDLLQSHHRILDFSATPDLPDQVLRVFKADQQSRYIMISKDTTAKEVVIQAIREFAVTATPDQYSLCEVSVTPEGVIKQRRLPDQLSKLADRIQLSGRYYLKNNMETETLCSDEDAQELLRESQISLLQLSTVEVATQLSMRNFELFRNIEPTEYIDDLFKLRSKTSCANLKRFEEVINQETFWVASEILRETNQLKRMKIIKHFIKIALHCRECKNFNSMFAIISGLNLAPVARLRTTWEKLPNKYEKLFQDLQDLFDPSRNMAKYRNVLNSQNLQPPIIPLFPVIKKDLTFLHEGNDSKVDGLVNFEKLRMIAKEIRHVGRMASVNMDPALMFRTRKKKWRSLGSLSQGSTNATVLDVAQTGGHKKRVRRSSFLNAKKLYEDAQMARKVKQYLSNLELEMDEESLQTLSLQCEPATNTLPKNPGDKKPVKSETSPVAPRAGSQQKAQSLPQPQQQPPPAHKINQGLQVPAVSLYPSRKKVPVKDLPPFGINSPQALKKILSLSEEGSLERHKKQAEDTISNASSQLSSPPTSPQSSPRKGYTLAPSGTVDNFSDSGHSEISSRSSIVSNSSFDSVPVSLHDERRQRHSVSIVETNLGMGRMERRTMIEPDQYSLGSYAPMSEGRGLYATATVISSPSTEELSQDQGDRASLDAADSGRGSWTSCSSGSHDNIQTIQHQRSWETLPFGHTHFDYSGDPAGLWASSSHMDQIMFSDHSTKYNRQNQSRESLEQAQSRASWASSTGYWGEDSEGDTGTIKRRGGKDVSIEAESSSLTSVTTEETKPVPMPAHIAVASSTTKGLIARKEGRYREPPPTPPGYIGIPITDFPEGHSHPARKPPDYNVALQRSRMVARSSDTAGPSSVQQPHGHPTSSRPVNKPQWHKPNESDPRLAPYQSQGFSTEEDEDEQVSAV
Activation of endogenous Ras by heterologous expression [1]: weak activation
Activation of Rap1 in cells [3]: mediates activation of Rap1
Foci formation / transformed phenotype of transfected cells [5]: induced foci formation
